Measured values published in article PMC6922093.

Experiments:
[1] = biological target: RSV strain B18537 DS-Cav1 F glycoprotein (prefusion-stabilized soluble F trimer, subtype B) (RSV subtype B strain B18537 | phage T4); experiment: crystal structure; crystals in 1.2M ammonium sulfate, 0.1M sodium acetate pH5.5, 0.1M lithium sulfate; space group P4(1)32, 1 protomer per asymmetric unit; trimer by crystal symmetry
[2] = biological target: RSV strain B18537 DS-Cav1 F glycoprotein (prefusion-stabilized soluble F trimer, subtype B) (RSV subtype B strain B18537 | phage T4); experiment: SEC; 120 mL Superdex-200 gel filtration column in PBS buffer; single monodisperse peak compared with protein standards

RSV strain B18537 DS-Cav1 F glycoprotein (prefusion-stabilized soluble F trimer, subtype B) (domain or fragment)
stoichiometry N [1]: 3 | stoichiometry N [2]: 3
